Assay results taken from paper PMC4010427, “Structural and Functional Similarity of Amphibian Constitutive Androstane Receptor with Mammalian Pregnane X Receptor” (PLoS ONE, 2014).

These molecules were tested against GST-tagged SRC-1 RID protein (recombinant human SRC-1, amino acids 583–783) (UniProt Q15788) (assay: CARLA). Conditions: 100 µM pregnanedione (log M = -4.0); n = 3; parent: est. 74; read off a plot.
GST-tagged SRC-1 RID protein (recombinant human SRC-1, amino acids 583–783), sequence (Q15788 583-783): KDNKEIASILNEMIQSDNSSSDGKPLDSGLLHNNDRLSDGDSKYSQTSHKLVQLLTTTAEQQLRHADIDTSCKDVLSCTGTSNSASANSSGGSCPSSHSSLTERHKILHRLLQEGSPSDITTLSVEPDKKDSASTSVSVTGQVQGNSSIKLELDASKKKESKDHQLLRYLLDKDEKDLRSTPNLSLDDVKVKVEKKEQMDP

Row | other: fold induction (fold over DMSO only (=1)) | Molecule
1 | 28 | full-length Xenopus laevis CARα, wild type, 35S-labelled Leu237Ile
2 | 2 | full-length Xenopus laevis CARα, wild type, 35S-labelled Phe279Leu

The next lines start with the molecule.

Row | Molecule | other: fold induction (fold over DMSO only (=1))
3 | full-length Xenopus laevis CARα, wild type, 35S-labelled Met272Val | 16
4 | full-length Xenopus laevis CARα, wild type, 35S-labelled Val315Ile | 10

Same assay, conditions: absence of ligand (DMSO only); n = 3; parent: est. 0.10; read off a plot

Row | response | Molecule
5 | 0.11 % of input | full-length Xenopus laevis CARα, wild type, 35S-labelled Ser238Asn
6 | 0.05 % of input | full-length Xenopus laevis CARα, wild type, 35S-labelled Leu237Ile
7 | 0.05 % of input | full-length Xenopus laevis CARα, wild type, 35S-labelled Phe279Leu

More lines, now with the values behind:

Row | Molecule | response
8 | full-length Xenopus laevis CARα, wild type, 35S-labelled Met272Val | 0.17 % of input
9 | full-length Xenopus laevis CARα, wild type, 35S-labelled Val315Ile | 0.09 % of input
10 | full-length Xenopus laevis CARα, wild type, 35S-labelled Tyr311Phe | 0.06 % of input
11 | full-length Xenopus laevis CARα, wild type, 35S-labelled Phe297Tyr | 0.11 % of input
12 | full-length Xenopus laevis CARα, wild type, 35S-labelled His295Leu | 0.11 % of input

The molecules below were run against T1, xlCARα (Xenopus laevis, UniProt A0A1L8FCY0) (assay: CARLA: ligand-dependent pull-down of […]-labelled receptor by GST-SRC-1 RID). Conditions: pH 8.0, 4 °C overnight; agonist; indirect coactivator-dependent binding assay.
T1 construct: gene nr1i3.L; full-length; 35S-Met labelled by in vitro transcription/translation (CARLA, with human GST-SRC-1 RID 583-783 as read-out) or expressed in HepG2 cells; LBD residues 145-423
T1 sequence (A0A1L8FCY0 19-441): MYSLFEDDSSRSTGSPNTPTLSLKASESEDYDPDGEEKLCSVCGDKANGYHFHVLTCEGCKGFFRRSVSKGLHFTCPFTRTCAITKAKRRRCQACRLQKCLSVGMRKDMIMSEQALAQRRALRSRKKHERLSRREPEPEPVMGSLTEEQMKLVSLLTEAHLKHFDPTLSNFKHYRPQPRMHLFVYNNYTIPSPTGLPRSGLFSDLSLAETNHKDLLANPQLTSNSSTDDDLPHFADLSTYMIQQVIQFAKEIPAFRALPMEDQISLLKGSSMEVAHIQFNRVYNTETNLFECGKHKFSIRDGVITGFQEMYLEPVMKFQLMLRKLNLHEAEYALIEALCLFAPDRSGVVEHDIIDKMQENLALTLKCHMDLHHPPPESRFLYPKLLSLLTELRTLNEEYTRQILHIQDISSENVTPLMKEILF

Row | Molecule | fold induction of SRC-1 interaction
13 | CC(=O)[C@H]1CC[C@H]2[C@@H]3CC[C@@H]4CC(=O)CC[C@]4(C)[C@H]3CC[C@]12C [5β-pregnane-3,20-dione] | suggests that xlCARα binds pregnanedione with higher affinity than hsCAR

These molecules were tested against GAL4-DBD/RXRα-LBD fusion protein (human retinoid X receptor α, amino acids 226–462) (UniProt P19793) (assay: mammalian two-hybrid assay). Conditions: COS7 cells; GAL4-dependent pGL3G5 reporter; no ligand; n = 6; parent: est. 40; read off a plot.
GAL4-DBD/RXRα-LBD fusion protein (human retinoid X receptor α, amino acids 226–462), sequence (P19793 226-462): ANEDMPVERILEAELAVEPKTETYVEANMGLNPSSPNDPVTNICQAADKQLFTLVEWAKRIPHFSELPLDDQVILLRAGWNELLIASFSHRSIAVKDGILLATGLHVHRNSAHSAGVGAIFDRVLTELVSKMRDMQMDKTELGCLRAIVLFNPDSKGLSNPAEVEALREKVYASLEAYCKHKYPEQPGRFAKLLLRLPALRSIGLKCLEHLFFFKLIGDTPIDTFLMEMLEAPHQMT

Row | response (fold over empty vector pVP16-AD (=1)) | Molecule
14 | 55 | VP16-AD/xlCARα-LBD fusion protein, wild type (Xenopus laevis constitutive androstane receptor α, amino acids 145–423) Met272Val
15 | 110 | VP16-AD/xlCARα-LBD fusion protein, wild type (Xenopus laevis constitutive androstane receptor α, amino acids 145–423) Thr305Val
16 | 56 | VP16-AD/xlCARα-LBD fusion protein, wild type (Xenopus laevis constitutive androstane receptor α, amino acids 145–423) Met316Phe

Further lines, the molecule ahead of its results:

Row | Molecule | response (fold over empty vector pVP16-AD (=1))
17 | VP16-AD/xlCARα-LBD fusion protein, wild type (Xenopus laevis constitutive androstane receptor α, amino acids 145–423) Tyr311Phe | 98
18 | VP16-AD/xlCARα-LBD fusion protein, wild type (Xenopus laevis constitutive androstane receptor α, amino acids 145–423) His295Leu | 47
19 | VP16-AD/xlCARα-LBD fusion protein, wild type (Xenopus laevis constitutive androstane receptor α, amino acids 145–423) Val315Ile | 41
20 | VP16-AD/xlCARα-LBD fusion protein, wild type (Xenopus laevis constitutive androstane receptor α, amino acids 145–423) Met272Val; Met316Phe | 59

What follows are molecules tested against GAL4-DBD/SRC1-RID fusion protein (human coactivator SRC-1, receptor interaction domain, amino acids 583–783) (UniProt Q15788) (assay: mammalian two-hybrid assay). Conditions: COS7 cells; pM-SRC-1 (black bars); no ligand; n = 9; empty pVP16-AD with pM-SRC-1 est. 0.57 (red line); parent: est. 0.49; read off a plot.
GAL4-DBD/SRC1-RID fusion protein (human coactivator SRC-1, receptor interaction domain, amino acids 583–783), sequence (Q15788 583-783): as the sequence (Q15788 583-783) above

Row | response [rel pM/pVP16] | Molecule
21 | 0.71 | VP16-AD/xlCARα-LBD fusion protein, wild type (Xenopus laevis constitutive androstane receptor α, amino acids 145–423) Met272Val
22 | 0.99 | VP16-AD/xlCARα-LBD fusion protein, wild type (Xenopus laevis constitutive androstane receptor α, amino acids 145–423) Thr305Val
23 | 0.8 | VP16-AD/xlCARα-LBD fusion protein, wild type (Xenopus laevis constitutive androstane receptor α, amino acids 145–423) Met316Phe

Further lines, the molecule ahead of its results:

Row | Molecule | response [rel pM/pVP16]
24 | VP16-AD/xlCARα-LBD fusion protein, wild type (Xenopus laevis constitutive androstane receptor α, amino acids 145–423) Tyr311Phe | 0.61
25 | VP16-AD/xlCARα-LBD fusion protein, wild type (Xenopus laevis constitutive androstane receptor α, amino acids 145–423) His295Leu | 0.45
26 | VP16-AD/xlCARα-LBD fusion protein, wild type (Xenopus laevis constitutive androstane receptor α, amino acids 145–423) Val315Ile | 0.38
27 | VP16-AD/xlCARα-LBD fusion protein, wild type (Xenopus laevis constitutive androstane receptor α, amino acids 145–423) Met272Val; Met316Phe | 0.77

These molecules were tested against GAL4-DBD/PGC-1α-RID fusion protein (human PGC-1α, receptor interaction domain, amino acids 88-213) (UniProt Q9UBK2) (assay: mammalian two-hybrid assay). Conditions: COS7 cells; pM-PGC1a (black bars); no ligand; n = 9; empty pVP16-AD with pM-PGC1a est. 3.3 (red line); parent: est. 3.6; read off a plot.
GAL4-DBD/PGC-1α-RID fusion protein (human PGC-1α, receptor interaction domain, amino acids 88-213), sequence (Q9UBK2 88-213): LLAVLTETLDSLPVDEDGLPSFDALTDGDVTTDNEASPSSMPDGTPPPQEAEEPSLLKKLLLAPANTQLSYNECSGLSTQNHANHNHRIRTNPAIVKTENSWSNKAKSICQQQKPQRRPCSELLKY

Row | response [rel pM/pVP16] | Molecule
28 | 5.5 | VP16-AD/xlCARα-LBD fusion protein, wild type (Xenopus laevis constitutive androstane receptor α, amino acids 145–423) Met272Val
29 | 5.7 | VP16-AD/xlCARα-LBD fusion protein, wild type (Xenopus laevis constitutive androstane receptor α, amino acids 145–423) Thr305Val
30 | 5 | VP16-AD/xlCARα-LBD fusion protein, wild type (Xenopus laevis constitutive androstane receptor α, amino acids 145–423) Met316Phe

More lines, now with the values behind:

Row | Molecule | response [rel pM/pVP16]
31 | VP16-AD/xlCARα-LBD fusion protein, wild type (Xenopus laevis constitutive androstane receptor α, amino acids 145–423) Tyr311Phe | 4.2
32 | VP16-AD/xlCARα-LBD fusion protein, wild type (Xenopus laevis constitutive androstane receptor α, amino acids 145–423) His295Leu | 2.8
33 | VP16-AD/xlCARα-LBD fusion protein, wild type (Xenopus laevis constitutive androstane receptor α, amino acids 145–423) Val315Ile | 2.8
34 | VP16-AD/xlCARα-LBD fusion protein, wild type (Xenopus laevis constitutive androstane receptor α, amino acids 145–423) Met272Val; Met316Phe | 5.5
